# Results as given in patent US20150274841A1 (DYAX, published 2015).
# Columns and labels:
# [1] = target: T1, plasma kallikrein catalytic domain Mutant 2 (R551A, Q553A, Y555A, T558A, R560A) (human, UniProt P03952 391-638); assay: Ki,app; IgG inhibition of PKal catalytic domain cleavage of a substrate peptide, Morrison fit
# T1 construct: Expressed in Pichia pastoris
# Procedure: (§1) Briefly, PKal and a Fab at various concentrations are incubated together for 1 hour at 30° C. A substrate peptide (cleavable by PKal) is then added to this PKal-Fab mixture. The rate of substrate peptide cleavage/proteolysis is then measured, and plotted against the concentrations of the Fab. This plot is then fit to the Morrison equation, which calculates the K_{i,app} value. The results thus obtained are shown in FIGS. 5A-5D and Table 3 below:
# (§2) The inhibitory activity of X115-F02 against the wild-type PKal and the mutants were carried out using the method described in Example 3 above and the K_{i,app} values were determined.
# [2] = target: T2, plasma kallikrein catalytic domain Mutant 4 (N396A, S398A, W399A) (human, UniProt P03952 391-638); assay: enzyme inhibition assay: rate (F/s) of substrate peptide cleavage by PKal against [IgG] (nM), fitted to the Morrison equation; apparent Ki (Ki,app)
# T2 construct: Expressed in Pichia pastoris
# T2 sequence (P03952 391-638 N396A/S398A/W399A): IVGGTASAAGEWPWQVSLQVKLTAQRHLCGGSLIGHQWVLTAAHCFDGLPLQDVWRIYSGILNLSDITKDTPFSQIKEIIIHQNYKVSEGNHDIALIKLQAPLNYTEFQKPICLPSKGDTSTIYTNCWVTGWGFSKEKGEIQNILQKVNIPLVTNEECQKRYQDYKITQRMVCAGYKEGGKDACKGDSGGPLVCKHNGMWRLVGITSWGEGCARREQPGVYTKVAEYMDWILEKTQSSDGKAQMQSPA
# Procedure: as §1, §2
# [3] = target: T3, wild type plasma kallikrein catalytic domain (recombinant, Pichia pastoris) (human, UniProt P03952 391-638); assay: as above
# T3 construct: also called wild-type PKal
# T3 sequence (P03952 391-638): as the sequence (P03952 391-638 N396A/S398A/W399A) above, with A6N, A8S, A9W counted along it
# Procedure: as §1, §2
# [4] = target: T1, plasma kallikrein catalytic domain …; assay: as above
# Procedure: as §1, §2
# [5] = target: T4, plasma kallikrein catalytic domain Mutant 1 (S478A, N481A, S506A, Y507A) (human, UniProt P03952 391-638); assay: as above
# T4 construct: Expressed in Pichia pastoris
# T4 sequence (P03952 391-638 S478A/N481A/C503S/S506A/K507A limits assumed): as the sequence (P03952 391-638 N396A/S398A/W399A) above, with A6N, A8S, A9W, S88A, N91A, C113S, S116A, K117A counted along it
# Procedure: as §1, §2
# T1 sequence (P03952 391-638 R551A/Q553A/Y555A/T558A/R560A): as the sequence (P03952 391-638 N396A/S398A/W399A) above, with A6N, A8S, A9W, R161A, Q163A, Y165A, T168A, R170A counted along it
binder,measurement,setting,value
"X115-F02 (antibody, human IgG1, kappa, V domains shown, also called mutant X115-F02) VH: EVQLLESGGGLVQPGGSLRLSCAASGFTFSHYIMMWVRQAPGKGLEWVSGIYSSGGITVYADSVKGRFTISRDNSKNTLYLQMNSLRAEDTAVYYCAYRRIGVPRRDEFDIWGQGTMVTVSS VL: DIQMTQSPSTLSASVGDRVTITCRASQSISSWLAWYQQKPGKAPKLLIYKASTLESGVPSRFSGSGSGTEFTLTISSLQPDDFATYYCQQYNTYWTFGQGTKVEIKR","fold reduction of potency (Ki,app) against wild-type PKal",[1],~65 fold
same,Ki,[2],0.1 nM
same,Ki,[3],0.09 nM
same,Ki,[4],5.9 nM
same,Ki,[5],0.14 nM
